Data taken from patent US10618964B2, “Nanobody against IL-6R” (Ablynx N.V., dated 2020).
Where a chain is given by its changes, count along the chain named. Each block holds one binder with its values, some of them ahead of it.

How the values were obtained:
[1] = target: soluble IL-6R in cynomolgous plasma (cynomolgus monkey, UniProt A0A2K5WN54); experiment: ELISA 2, periplasmic extract; competitor IL-6; cyno plasma
Protocol: (§1) In this ELISA, plasma was used as a source of native soluble IL-6R. By this assay, we aimed to confirm the alphascreen results and to get a view on the cross-reactivity of the clones towards cynomolgous IL-6R. Human plasma (ELISA 1 and ELISA 3) or cynomolgous plasma (ELISA 2) were pre-incubated with a dilution of the periplasmic extract of the clones together with human IL-6 (50 ng/mL). Subsequently, plasma soluble IL-6R was captured on a B-N12 coated plate and bound IL-6 was detected using anti-IL-6 antibody BAF206 and streptavidin-HRP (ELISA 1 and ELISA 2). The ELISA signal dropped when the Nanobody clone could compete with IL-6 for binding to soluble IL-6R. ELISA 3 was a parallel ELISA in which the detection antibody was replaced by anti-IL-6R antibody BAF227 to exclude false positive competitors, which actually compete with B-N12 (e.g. family 2). Depicted in Table C-5 is the ratio of the OD450 value of the test sample versus the blank OD450 (mock sample). Clones were ordered based on ELISA 1 data.

[2] = target: T1, native soluble IL-6R in human plasma (human, UniProt P08887); experiment: ELISA 1, periplasmic extract; competitor IL-6; human plasma
Protocol: as §1

[3] = target: T1, native soluble IL-6R in human plasma; experiment: ELISA 3, periplasmic extract; competitor BN-12; human plasma
Protocol: as §1

B2: IL6RPMP100A10 (VHH)
VHH: EVQLVESGGGLVQAGGSLRLSCAASGRGFSPYTMGWFRQAPGKERVFVAGISWSTGIAHYTDSVKGRFTISRDNAKNTGSLQMNSLKPEDTAVYYCAVVQTTKGNYDYWGQGTQVTVSS
OD450 ratio sample/blank [1]: 0.189
OD450 ratio sample/blank [2]: 0.748
OD450 ratio sample/blank [3]: 0.97

B6: IL6RPMP101D2 (VHH)
VHH: EVQMVESGGGLVQAGGSLRLSCAASGFAFDDYAIGWFRQAPGKEREGVSSISSSNGNTYYADSVRGRFTISSDNAKNTVYLQMNSLKPEDAGVYYCAAIWGIFFNEKMPVGAYDYWGQGTQVTVSS
OD450 ratio sample/blank [1]: 0.822
OD450 ratio sample/blank [2]: 0.124
OD450 ratio sample/blank [3]: 0.977

B7: IL6RPMP101E1 (VHH)
VHH: B6 VHH with M4L, A91T
OD450 ratio sample/blank [1]: 0.805
OD450 ratio sample/blank [2]: 0.716
OD450 ratio sample/blank [3]: 0.947

B8: IL6RPMP101H3 (VHH)
VHH: B6 VHH with M4L, A91T
OD450 ratio sample/blank [1]: 0.859
OD450 ratio sample/blank [2]: 0.772
OD450 ratio sample/blank [3]: 0.954

B11: IL6RPMP101F1 (VHH)
VHH: B6 VHH with M4L, A91T
OD450 ratio sample/blank [1]: 0.829
OD450 ratio sample/blank [2]: 0.754
OD450 ratio sample/blank [3]: 0.957

B12: IL6RPMP101G4 (VHH)
VHH: B6 VHH with M4L, A91T
OD450 ratio sample/blank [1]: 0.815
OD450 ratio sample/blank [2]: 0.796
OD450 ratio sample/blank [3]: 1.02

B13: IL6RPMP101F3 (VHH)
VHH: B6 VHH with M4L, A91T
OD450 ratio sample/blank [1]: 0.822
OD450 ratio sample/blank [2]: 0.758
OD450 ratio sample/blank [3]: 0.984

B15: IL6RPMP101A4 (VHH)
VHH: EVQLVESGGGTVQAGGSLKLSCAASGRTFTNYAMGWFRQAPGKEREFVAAIAYATHFADSVKGRFTISRGNAKNTVYLQMNSLKPEDAAVYYCAADLSLSKMVSKITSDMDYWGKGTLVTVSS
OD450 ratio sample/blank [1]: 0.713
OD450 ratio sample/blank [2]: 0.792
OD450 ratio sample/blank [3]: 0.99

B16: IL6RPMP100A6 (VHH)
VHH: EVQLVESGGGLVQAGDSLRLSCLASGRSFKDDAMGWFRQAPGKEREFVSGIDWRGNIVDAESVKGRFTISRENAKNTLYLQMNHLKPEDTAVYYCAASSVFSDLRYRKNPKYWGQGTQVTVSS
OD450 ratio sample/blank [1]: 0.722
OD450 ratio sample/blank [2]: 0.948
OD450 ratio sample/blank [3]: 0.923

B18: IL6RPMP101D1 (VHH)
VHH: EVQLVESGGGLVQAGGSLRLSCTASGRTFSDYDMGWFRQAPGKERECVAIIDTNGDNTLIVGSVKGRFAISSDNAKNTVYLQMNSLLPEDTAVYTCAAGVWSSLRHTAANYWGQGTQVTVSS
OD450 ratio sample/blank [1]: 0.79
OD450 ratio sample/blank [2]: 0.812
OD450 ratio sample/blank [3]: 0.928

B19: IL6RPMP101A5 (VHH)
VHH: B18 VHH
OD450 ratio sample/blank [1]: 0.736
OD450 ratio sample/blank [2]: 1.03
OD450 ratio sample/blank [3]: 0.95

B21: IL6RPMP101C2 (VHH)
VHH: B18 VHH
OD450 ratio sample/blank [1]: 1.03
OD450 ratio sample/blank [2]: 1.04
OD450 ratio sample/blank [3]: 0.952

The next lines start with the values.

OD450 ratio sample/blank [1]: 0.6
OD450 ratio sample/blank [2]: 0.865
OD450 ratio sample/blank [3]: 0.962
B1: IL6RPMP107H2 (VHH)
VHH: KVQLVESGGGLVQPGGSLRLSCAASGFTFSSYAMSWVRRAPGKGLEWVSAINSDGTGSSYAPFVTGRFTASRDNAKNTLYLQMNSLKPEDTAVYYCTNSNRYDYADFSAVRGQGTQVTVSS

OD450 ratio sample/blank [1]: 0.296
OD450 ratio sample/blank [2]: 0.673
OD450 ratio sample/blank [3]: 0.988
B3: IL6RPMP120C11 (VHH)
VHH: EVQLVESGGGLVQAGGSLSLSCATSGRTISDDTMAWFRQAPGKEREFVATITFSGARTHYSDSVRDRFTISRDNAKNTVYLQMNSLKSEDTAVYYCAASTKYYSSTYNYIHPAFYDIWGQGTQVTVSS

OD450 ratio sample/blank [1]: 0.299
OD450 ratio sample/blank [2]: 0.714
OD450 ratio sample/blank [3]: 1.03
B4: IL6RPMP120B7 (VHH)
VHH: B3 VHH

OD450 ratio sample/blank [1]: 1.02
OD450 ratio sample/blank [2]: 0.99
OD450 ratio sample/blank [3]: 0.984
B5: IL6RPMP106B2 (VHH)
VHH: EVQLVESGGGLVQAGGSLRLSCAASGSIFRINAMGWYRQAPGKQRELVAAAISGGSTNYADFVKGRFTISRDNAKNTVYLQMNSLKPEDTAVYYCNALVVSHNYSDYVPFPDDYWGQGTQVTVSS

OD450 ratio sample/blank [1]: 0.691
OD450 ratio sample/blank [2]: 0.679
OD450 ratio sample/blank [3]: 0.971
B9: IL6RPMP105E11 (VHH)
VHH: B6 VHH with M4L, S85G, A91T

OD450 ratio sample/blank [1]: 0.816
OD450 ratio sample/blank [2]: 0.808
OD450 ratio sample/blank [3]: 1.03
B10: IL6RPMP105B8 (VHH)
VHH: B6 VHH with M4L, Q13R, A91T

OD450 ratio sample/blank [1]: 0.249
OD450 ratio sample/blank [2]: 0.877
OD450 ratio sample/blank [3]: 0.989
B14: IL6RPMP119A10 (VHH)
VHH: EVQLVESGGGLVQPGGSLRLSCAASKSIFDINAMYWHRQAPGKQRESVASITSGGMRNYADSVKDRFTISKDNAKNTVYLQMNGLKPDDTAVYYCGLGRYEGGVWRDYWGQGTQVTVSS

OD450 ratio sample/blank [1]: 0.713
OD450 ratio sample/blank [2]: 0.788
OD450 ratio sample/blank [3]: 0.954
B17: IL6RPMP101H6 (VHH)
VHH: B18 VHH with V2M, S30T, C47V, I60T, V100A, S103A, H106R, T107S, A108V

OD450 ratio sample/blank [1]: 0.761
OD450 ratio sample/blank [2]: 0.961
OD450 ratio sample/blank [3]: 1.03
B20: IL6RPMP108D10 (VHH)
VHH: B18 VHH with L11S, I50V, I60T, S72R, V100A, H106S

OD450 ratio sample/blank [1]: 0.8
OD450 ratio sample/blank [2]: 1.05
OD450 ratio sample/blank [3]: 1.02
B22: IL6RPMP108F7 (VHH)
VHH: B18 VHH with I50V, I60T, S72R, V100A, H106S

OD450 ratio sample/blank [1]: 0.79
OD450 ratio sample/blank [2]: 0.87
OD450 ratio sample/blank [3]: 1.04
B23: IL6RPMP108D1 (VHH)
VHH: B18 VHH with I50V, I60T, S72R, V100A, H106S, Q117K

OD450 ratio sample/blank [1]: 0.916
OD450 ratio sample/blank [2]: 1.04
OD450 ratio sample/blank [3]: 1.03
B24: IL6RPMP103A4 (VHH)
VHH: EVQLVESGGGLVQPGGSLRLSCAASGSIFSINTMGWYRQVPGKQRELVATVRSGSITNYADSVQDRFTITRDIDENTVYLQMNSLKPEDTAVYYCLTRASVPGRGYQDYWGQGTQVTVSS

OD450 ratio sample/blank [1]: 0.345
OD450 ratio sample/blank [2]: 0.0624
OD450 ratio sample/blank [3]: 0.916
B25: IL6RPMP108D2 (VHH)
VHH: EVQLVESGGGLVQAGGSLRLSCAASGFTFDDYDIGWFRQAPGKEREGVSGISSSDGNTYYADSVKGRFTISSDNAKNTVYLQMNSLKPEDTAVYYCAAEPPDSSWYLDGSPEFFKYWGQGTQVTVSS

OD450 ratio sample/blank [1]: 0.997
OD450 ratio sample/blank [2]: 0.901
OD450 ratio sample/blank [3]: 1.03
B26: IL6RPMP107H5 (VHH)
VHH: EVPLVESGGGLVQAGGSLNLSCNASGDIGSINAMGWYRQAPGQQREWVAVITDTDSTIYPDSVKGRFAISRDGAKNTVHLRMSSLKPEDTAVYYCNAYQAGWGDYWGQGTQVTVSS
